Experiments:
HeLa Kyoto [1] = assay: solubility change mitosis vs G1/S (difference of NP-40 vs SDS log2 ratios) (log2 ratio difference); higher = more soluble in mitosis
HeLa Kyoto [2] = assay: solubility in G1/S (NP-40 vs SDS abundance) (log2 ratio); higher = more soluble; settings: cell cycle stage: G1/S
HeLa Kyoto [3] = assay: thermal stability score vs G1/S (z-score of summed log2 fold changes over temperatures); higher = more thermally stable than in G1/S
HeLa Kyoto [4] = assay: melting temperature (median over replicates), in situ; higher = more thermally stable
[5] = cell cycle stage: early G1 (4.5 h after nocodazole release)
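Wherever melting temperature (median over replicates), in situ is given: HeLa Kyoto cells synchronized by double thymidine or nocodazole block, proteins quantified by TMT10plex mass spectrometry, three independent biological replicates.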
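Wherever solubility change mitosis vs G1/S (difference of NP-40 vs SDS log2 ratios) is given: synchronized HeLa Kyoto cells (double thymidine block for G1/S, nocodazole release for mitosis), protein amounts in NP-40 versus SDS lysates quantified by mass spectrometry, three biological replicates.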
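Wherever solubility in G1/S (NP-40 vs SDS abundance) is given: HeLa Kyoto cells arrested at G1/S by double thymidine block, proteins quantified by TMT10plex mass spectrometry in mild NP-40 versus SDS extracts, three biological replicates.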
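Wherever thermal stability score vs G1/S (z-score of summed log2 fold changes over temperatures) is given: synchronized HeLa Kyoto cells, proteins quantified by TMT10plex mass spectrometry, three biological replicates, mitosis taken 0.5 h after nocodazole release, G1/S directly after double thymidine block.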

Substance	solubility change mitosis (log2) (HeLa Kyoto [1])	solubility in G1/S (log2) (HeLa Kyoto [2])	thermal stability score (HeLa Kyoto [3]; [5])	thermal stability score (HeLa Kyoto [3]; cell cycle stage: mitosis)	melting temperature (HeLa Kyoto [4]; cell cycle stage: G1/S) [°C]	melting temperature (HeLa Kyoto [4]; cell cycle stage: mitosis) [°C]
MPRVKAAQAGRQSSAKRHLAEQFAVGEIITDMAKKEWKVGLPIGQGGFGCIYLADMNSSESVGSDAPCVVKVEPSDNGPLFTELKFYQRAAKPEQIQKWIRTRKLKYLGVPKYWGSGLHDKNGKSYRFMIMDRFGSDLQKIYEANAKRFSRKTVLQLSLRILDILEYIHEHEYVHGDIKASNLLLNYKNPDQVYLVDYGLAYRYCPEGVHKEYKEDPKRCHDGTIEFTSIDAHNGVAPSRRGDLEILGYCMIQWLTGHLPWEDNLKDPKYVRDSKIRYRENIASLMDKCFPEKNKPGEIAKYMETVKLLDYTEKPLYENLRDILLQGLKAIGSKDDGKLDLSVVENGGLKAKTITKKRKKEIEESKEPGVEDTEWSNTQTEEAIQTRSRTRKRVQK [VRK1]	-0.0401	-0.215	3.16	3.91	48.2	49.8
MAGLTVRDPAVDRSLRSVFVGNIPYEATEEQLKDIFSEVGPVVSFRLVYDRETGKPKGYGFCEYQDQETALSAMRNLNGREFSGRALRVDNAASEKNKEELKSLGTGAPVIESPYGETISPEDAPESISKAVASLPPEQMFELMKQMKLCVQNSPQEARNMLLQNPQLAYALLQAQVVMRIVDPEIALKILHRQTNIPTLIAGNPQPVHGAGPGSGSNVSMNQQNPQAPQAQSLGGMHVNGAPPLMQASMQGGVPAPGQMPAAVTGPGPGSLAPGGGMQAQVGMPGSGPVSMERGQVPMQDPRAAMQRGSLPANVPTPRGLLGDAPNDPRGGTLLSVTGEVEPRGYLGPPHQGPPMHHVPGHESRGPPPHELRGGPLPEPRPLMAEPRGPMLDQRGPPLDGRGGRDPRGIDARGMEARAMEARGLDARGLEARAMEARAMEARAMEARAMEARAMEVRGMEARGMDTRGPVPGPRGPIPSGMQGPSPINMGAVVPQGSRQVPVMQGTGMQGASIQGGSQPGGFSPGQNQVTPQDHEKAALIMQVLQLTADQIAMLPPEQRQSILILKEQIQKSTGAP [CSTF2]	0.172	0.323	-0.643	-0.392	53	53.2
MDEAGSSASGGGFRPGVDSLDEPPNSRIFLVISKYTPESVLRERFSPFGDIQDIWVVRDKHTKESKGIAFVKFARSSQACRAMEEMHGQCLGPNDTKPIKVFIAQSRSSGSHRDVEDEELTRIFVMIPKSYTEEDLREKFKVYGDIEYCSIIKNKVTGESKGLGYVRYLKPSQAAQAIENCDRSFRAILAEPKNKASESSEQDYYSNMRQEALGHEPRVNMFPFVGEQQSEFSSFDKNDSRGQEAISKRLSVVSRVPFTEEQLFSIFDIVPGLEYCEVQRDPYSNYGHGVVQYFNVASAIYAKYKLHGFQYPPGNRIGVSFIDDGSNATDLLRKMATQMVAAQLASMVWNNPSQQQFMQFGGSSGSQLPQIQTDVVLPSCKKKAPAETPVKERLFIVFNPHPLPLDVLEDIFCRFGNLIEVYLVSGKNVGYAKYADRISANDAIATLHGKILNGVRLKVMLADSPREESNKRQRTY [RBM45]	0.448	0.000113	0.337	0.251	48.4	50
MKAFHTFCVVLLVFGSVSEAKFDDFEDEEDIVEYDDNDFAEFEDVMEDSVTESPQRVIITEDDEDETTVELEGQDENQEGDFEDADTQEGDTESEPYDDEEFEGYEDKPDTSSSKNKDPITIVDVPAHLQNSWESYYLEILMVTGLLAYIMNYIIGKNKNSRLAQAWFNTHRELLESNFTLVGDDGTNKEATSTGKLNQENEHIYNLWCSGRVCCEGMLIQLRFLKRQDLLNVLARMMRPVSDQVQIKVTMNDEDMDTYVFAVGTRKALVRLQKEMQDLSEFCSDKPKSGAKYGLPDSLAILSEMGEVTDGMMDTKMVHFLTHYADKIESVHFSDQFSGPKIMQEEGQPLKLPDTKRTLLFTFNVPGSGNTYPKDMEALLPLMNMVIYSIDKAKKFRLNREGKQKADKNRARVEENFLKLTHVQRQEAAQSRREEKKRAEKERIMNEEDPEKQRRLEEAALRREQKKLEKKQMKMKQIKVKAM [CCDC47]	0.000886	-0.0628	0.286	-1.13	52.9	52.7
MDVTSSSGGGGDPRQIEETKPLLGGDVSAPEGTKMGAVPCRRALLLCNGMRYKLLQEGDIQVCVIRHPRTFLSKILTSKFLRRWEPHHLTLADNSLASATPTGYMENSVSYSAIEDVQLLSWENAPKYCLQLTIPGGTVLLQAANSYLRDQWFHSLQWKKKIYKYKKVLSNPSRWEVVLKEIRTLVDMALTSPLQDDSINQAPLEIVSKLLSENTNLTTQEHENIIVAIAPLLENNHPPPDLCEFFCKHCRERPRSMVVIEVFTPVVQRILKHNMDFGKCPRLRLFTQEYILALNELNAGMEVVKKFIQSMHGPTGHCPHPRVLPNLVAVCLAAIYSCYEEFINSRDNSPSLKEIRNGCQQPCDRKPTLPLRLLHPSPDLVSQEATLSEARLKSVVVASSEIHVEVERTSTAKPALTASAGNDSEPNLIDCLMVSPACSTMSIELGPQADRTLGCYVEILKLLSDYDDWRPSLASLLQPIPFPKEALAHEKFTKELKYVIQRFAEDPRQEVHSCLLSVRAGKDGWFQLYSPGGVACDDDGELFASMVHILMGSCYKTKKFLLSLAENKLGPCMLLALRGNQTMVEILCLMLEYNIIDNNDTQLQIISTLESTDVGKRMYEQLCDRQRELKELQRKGGPTRLTLPSKSTDADLARLLSSGSFGNLENLSLAFTNVTSACAEHLIKLPSLKQLNLWSTQFGDAGLRLLSEHLTMLQVLNLCETPVTDAGLLALSSMKSLCSLNMNSTKLSADTYEDLKAKLPNLKEVDVRYTEAW [CMIP]	-0.224	0.271	0.861	0.998	50.5	48.7
MTDGDYDYLIKLLALGDSGVGKTTFLYRYTDNKFNPKFITTVGIDFREKRVVYNAQGPNGSSGKAFKVHLQLWDTAGQERFRSLTTAFFRDAMGFLLMFDLTSQQSFLNVRNWMSQLQANAYCENPDIVLIGNKADLPDQREVNERQARELADKYGIPYFETSAATGQNVEKAVETLLDLIMKRMEQCVEKTQIPDTVNGGNSGNLDGEKPPEKKCIC [RAB27B]	-0.0223	0.00344	-1.38	-2.39	55.7	59.9
MNPNCARCGKIVYPTEKVNCLDKFWHKACFHCETCKMTLNMKNYKGYEKKPYCNAHYPKQSFTMVADTPENLRLKQQSELQSQVRYKEEFEKNKGKGFSVVADTPELQRIKKTQDQISNIKYHEEFEKSRMGPSGGEGMEPERRDSQDGSSYRRPLEQQQPHHIPTSAPVYQQPQQQPVAQSYGGYKEPAAPVSIQRSAPGGGGKRYRAVYDYSAADEDEVSFQDGDTIVNVQQIDDGWMYGTVERTGDTGMLPANYVEAI [LASP1]	0.0867	0.0591	-2.02	-2.68	58.7	60.5
DICER1	-0.07	-0.101	-0.0197	0.111	50.7	50.1
MGRESRHYRKRSASRGRSGSRSRSRSPSDKRSKRGDDRRSRSRDRDRRRERSRSRDKRRSRSRDRKRLRRSRSRERDRSRERRRSRSRDRRRSRSRSRGRRSRSSSPGNKSKKTENRSRSKEKTDGGESSKEKKKDKDDKEDEKEKDAGNFDQNKLEEEMRKRKERVEKWREEQRKKAMENIGELKKEIEEMKQGKKWSLEDDDDDEDDPAEAEKEGNEMEGEELDPLDAYMEEVKEEVKKFNMRSVKGGGGNEKKSGPTVTKVVTVVTTKKAVVDSDKKKGELMENDQDAMEYSSEEEEVDLQTALTGYQTKQRKLLEPVDHGKIEYEPFRKNFYVEVPELAKMSQEEVNVFRLEMEGITVKGKGCPKPIKSWVQCGISMKILNSLKKHGYEKPTPIQTQAIPAIMSGRDLIGIAKTGSGKTIAFLLPMFRHIMDQRSLEEGEGPIAVIMTPTRELALQITKECKKFSKTLGLRVVCVYGGTGISEQIAELKRGAEIIVCTPGRMIDMLAANSGRVTNLRRVTYVVLDEADRMFDMGFEPQVMRIVDNVRPDRQTVMFSATFPRAMEALARRILSKPIEVQVGGRSVVCSDVEQQVIVIEEEKKFLKLLELLGHYQESGSVIIFVDKQEHADGLLKDLMRASYPCMSLHGGIDQYDRDSIINDFKNGTCKLLVATSVAARGLDVKHLILVVNYSCPNHYEDYVHRAGRTGRAGNKGYAYTFITEDQARYAGDIIKALELSGTAVPPDLEKLWSDFKDQQKAEGKIIKKSSGFSGKGFKFDETEQALANERKKLQKAALGLQDSDDEDAAVDIDEQIESMFNSKKRVKDMAAPGTSSVPAPTAGNAEKLEIAKRLALRINAQKNLGIESQDVMQQATNAILRGGTILAPTVSAKTIAEQLAEKINAKLNYVPLEKQEEERQDGGQNESFKRYEEELEINDFPQTARWKVTSKEALQRISEYSEAAITIRGTYFPPGKEPKEGERKIYLAIESANELAVQKAKAEITRLIKEELIRLQNSYQPTNKGRYKVL [DDX46]	-0.00451	-0.607	3.63	9.43	47.7	49.2
MAEFTSYKETASSRHLRFKLQSLSRRLDELEEATKNLQKAEDELLDLQDKVIQAEGSNSSMLAEIEVLRQRVLRIEGKDEEIKRAEDLCRLMKEKLEEEENLTRELKSEIERLQKRMAELEKLEEAFSRSKNDCTQLCLSLNEERNLTKKISSELEMLRVKVKELESSEDRLDKTEQSLASELEKLKSLTLSFVSERKYLNEKEKENEKLIKELTQKLEQNKKMNRDYTRNASNLERNDLRIEDGISSTLPSKESRRKGGLDYLKQVENETRNKSENEKNRNQEDNKVKDLNQEIEKLKTQIKHFESLEEELKKMKSKNNDLQDNYLSEQNKNKLLASQLEEIKLQIKKQKELENGEVEGEDAFLSSKGRHERTKFRGHGSEASVSKHTARELSPQHKRERLRNREFALNNENYSLSNRQVSSPSFTNRRAAKASHMGVSTDSGTQETKKTEDRFVPGSSQSEGKKSREQPSVLSRYPPAAQEHSKAWKGTSKPGTESGLKGKVEKTTRTFSDTTHGSVPSDPLGRADKASDTSSETVFGKRGHVLGNGSQVTQAANSGCSKAIGALASSRRSSSEGLSKGKKAANGLEADNSCPNSKAPVLSKYPYSCRSQENILQGFSTSHKEGVNQPAAVVMEDSSPHEALRCRVIKSSGREKPDSDDDLDIASLVTAKLVNTTITPEPEPKPQPNSREKAKTRGAPRTSLFENDKDAGMENESVKSVRASTNTMELPDTNGAGVKSQRPFSPREALRSRAIIKPVIVDKDVKKIMGGSGTETTLEKQKPVSKPGPNKVTSSITIYPSDSSSPRAAPGEALRERHTSTSNIQVGLAELTSVSNHVSSPFELSIHKHDITLQLAEAERMADGPLKDRPETVVSRSSIIIKPSDPVERNSHAPPAETIRWKSHSAPSEVGFSDARHVTVRNAWKSRRDLKSLEDPPTRIGKNVESTNSNAYTQRSSTDFSELEQPRSCLFEQGTRRVGPSSGDAPEPSSRRTQSSLTVSEVLTRRNRVGDTITVAAWNHSASMEEEGEDCTLSVYRQLHNSLDPSELPGKQGLPESGRVRAEERLRPTRPCAEEN [LUZP1]	0.14	-0.781	0.392	0.722	51.8	52.3

From the supplement of paper PMC5998384
